± gives the standard deviation of the averaged measurements.
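Further: ATP exposure 15 min at 22 °C before imaging.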

The test system of the series is ATP. The experiment in a line: switch fluorescence ratio, 500 uM ATP over buffer (Cy3 cluster intensity, sum of 5 cycles each) (fold (ratio)); higher = stronger signal-on switching upon ATP binding; sequences stand for … in TCGTCGGCAGCGTCAGATGTGTATAAGAGACAGTTTTTTTTTTTTTTTTTTTTTTTTT…TC. To be noted: aptamer strand: ATP DNA aptamer (quencher-CACCTGGGGGAGTATTGCGGAGGAAGG + anchor), 100 nM annealed; ATP concentration: 500 uM. Summed up:
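For every switch-domain sequence, the fluorescence ratio is the mean of per-cluster values, each being summed target-cycle Cy3 intensity over summed buffer-cycle Cy3 intensity. Clusters outside 100-1000 RFU were excluded. On a modified Illumina MiSeq flow-cell, the Cy3-labelled switching-strand clusters were annealed to 100 nM quencher-labelled ATP aptamer, imaged in selection buffer and then after 15 min with 500 uM ATP at 22 °C. Five such cycles were run, with NaOH stripping and re-annealing between them.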
With CGATTGTGGG, the switch fluorescence ratio was 0.9962 ± 0.0092. Consider AGAGCTTGAT, for which the switch fluorescence ratio was determined as 1 ± 0.036. For CTCCGGTTTG, the switch fluorescence ratio was determined as 2.03 ± 1.4.

With ATCCGGGGAA, the switch fluorescence ratio amounted to 1.02 ± 0.0032.

As for GATGTTAATA, the switch fluorescence ratio was 0.985 ± 0.085.

For the sequence TCGTGCTTGG, the switch fluorescence ratio worked out at 1 ± 0.029. On to TTTCGTGTTT, for which the switch fluorescence ratio turned out to be 0.998 ± 0.028. Under AATTGGAAAA stands 0.987 ± 0.019; under AGAGGCATCG, 0.9941 ± 0.005; under TTGGTAGATT, 0.984 ± 0.047. To TATGTTTTGT belongs 1.02 ± 0.041; to CGTAGTAGGC, 1.12 ± 0.1; to TGGAATACG, 1.35 ± 0.036. To ACAGGGGAGT belongs 1.03 ± 0.02.

As for TATGATGTCG, the switch fluorescence ratio came to 1.01 ± 0.027.

Turning to TAATTCGGAT, the switch fluorescence ratio turned out to be 2.07 ± 1.8. With TCATCGGGGC, the switch fluorescence ratio was found to be 1.03 ± 0.071. With AGGGATTAGC, the switch fluorescence ratio was 0.988 ± 0.015. To TGTTTTGAAT belongs 1.006 ± 0.0096.

GAATGTTCTT: the switch fluorescence ratio amounted to 1.0298 ± 6.1e-05.

Consider CGTCTGTCTC, for which the switch fluorescence ratio was 1.045 ± 0.005. Under ATGGAGATAG stands 1.01 ± 0.026; under TCTGTTCATG, 1.001 ± 0.0081. In the case of AATTAGTTCG, the switch fluorescence ratio came out at 0.98 ± 0.02. TTGGTGTCAG: the switch fluorescence ratio was 1.02 ± 0.018. To AAATCATTGG belongs 1.01 ± 0.026; to CGGATTAGGG, 1 ± 0.022. To GGGGTTAAAT belongs 1 ± 0.047. To CGGGGGAATG belongs 0.967 ± 0.027; to ATAGGAACTT, 1.02 ± 0.013.

As for CGATGTTGGG, the switch fluorescence ratio came out at 0.99 ± 0.018. Under GGTCACGTAT stands 1.05 ± 0.014.

Take AAGAAGGATG: the switch fluorescence ratio was found to be 0.982 ± 0.049. Under AGATGTGTAG stands 1.04 ± 0.012.

As for TTTTAATGGG, the switch fluorescence ratio was 0.999 ± 0.02.

Regarding TTTGTTTGTG, the switch fluorescence ratio turned out to be 1 ± 0.014. To TTGGTCTTTT belongs 0.976 ± 0.012; to TGGGGAAAAC, 1.02 ± 0.051; to TTTCGAACGG, 1.03 ± 0.028. Under ATCGGTAATT stands 0.997 ± 0.029. Under GCACTCGGCT stands 0.991 ± 0.0047; under GTATTAGTGT, 1.006 ± 0.0073. For the sequence TTTACGAGGG, the switch fluorescence ratio is 0.977 ± 0.015.

In the case of AGCGTTTAGA, the switch fluorescence ratio amounted to 0.989 ± 0.011.

With TTCACGGCCC, the switch fluorescence ratio was 1.04 ± 0.013. For TAGGGGTGCG, the switch fluorescence ratio was 1 ± 0.038. To GAGTTAGTCA belongs 0.975 ± 0.024.

As for AAATCTTAAT, the switch fluorescence ratio was determined as 1.002 ± 0.007. To AGAATGGAAC belongs 0.976 ± 0.056; to AACCATCGGG, 0.976 ± 0.013; to GTTTTAGGTT, 0.993 ± 0.023. To GGAATACTTT belongs 1.01 ± 0.028. With TTTCACTTGT, the switch fluorescence ratio was 1.034 ± 0.0018. Under TATAATTTAC stands 1.06 ± 0.017. Under GGGATATTTG stands 0.999 ± 0.036; under GTAGTTTTAC, 1.042 ± 0.0071. For TTTCATAGTC, the switch fluorescence ratio came to 1 ± 0.025. As to CACCGTGTCT, the switch fluorescence ratio stood at 1.02 ± 0.016. Under AAAGAGTTGC stands 0.9785 ± 0.0069; under TAGTACTAGA, 1.03 ± 0.02. To TGACAGCCTT belongs 1.068 ± 0.0032; to TTCTTTAGGG, 1.16 ± 0.26. Under AAGCTTGAAG stands 1.01 ± 0.013; under CGATAGGGGG, 1.01 ± 0.022. For the sequence GAGGCTATGG, the switch fluorescence ratio amounted to 1.01 ± 0.022.

For the sequence ATTGACGAGG, the switch fluorescence ratio was determined as 1.001 ± 0.0026. Under CACACGGTTC stands 1.02 ± 0.028; under AGTGTGGAAT, 0.954 ± 0.011; under CTCAAGACGG, 1.06 ± 0.012. To GGCTGTGAAC belongs 1.02 ± 0.023; to GGTTTTATAC, 1.04 ± 0.02; to GGGATATGGA, 1.04 ± 0.049.

For the sequence TTTAGAGGGT, the switch fluorescence ratio came out at 0.988 ± 0.013.

TTAAAGGATT: the switch fluorescence ratio was 1.01 ± 0.052.

On to TAGCTTTTAT, for which the switch fluorescence ratio worked out at 0.996 ± 0.032.

On to GCTAAATTCC, for which the switch fluorescence ratio was 1.11 ± 0.027. Under CCCGGGTAGT stands 1.12 ± 0.12; under GCTGGAAAAT, 1 ± 0.013; under CGCATGTTTT, 1.06 ± 0.1.

Turning to CAATAGAAGT, the switch fluorescence ratio is 0.979 ± 0.037. GTTCAAAATT: the switch fluorescence ratio came out at 1.03 ± 0.036.

As for CCAAGGTTCG, the switch fluorescence ratio came out at 0.945 ± 0.053.

As for TTCGTTACAG, the switch fluorescence ratio is 0.998 ± 0.027. Regarding CGGCAGTGTG, the switch fluorescence ratio came to 1.01 ± 0.048. To AGCTGGCTGT belongs 0.9735 ± 0.0037; to TTTTCGAGGT, 1.17 ± 0.24. With AGTTGTTGG, the switch fluorescence ratio was 0.982 ± 0.011. To ATGAAGGGGG belongs 1.03 ± 0.042; to AATGGATGTT, 1.05 ± 0.12.

Turning to TCTGTGTTGG, the switch fluorescence ratio came to 0.98 ± 0.02. Under GTATGGGCGG stands 0.991 ± 0.035; under TATAACGTCC, 1.11 ± 0.093; under GGGTTCGTTA, 0.993 ± 0.029. On to AGGATTTAGG, for which the switch fluorescence ratio was found to be 0.983 ± 0.031.

For the sequence CACTTAAGGC, the switch fluorescence ratio came to 1.05 ± 0.072. Under CATGTTGGTT stands 0.992 ± 0.032; under GGCCGGATGG, 0.991 ± 0.011. Take TTCCATAGGG: the switch fluorescence ratio amounted to 0.987 ± 0.022.

In the case of TTTCTGGCTA, the switch fluorescence ratio was 1.08 ± 0.053. Under GAAAGAGTGA stands 1.01 ± 0.016; under CCACTGGGTA, 1.054 ± 0.0042; under ATCGCGGGCC, 1.03 ± 0.036. To AGTATGAGTT belongs 0.9737 ± 0.0017; to CGCTTGAAAT, 1.05 ± 0.018. To ACGGGGTAGA belongs 1.03 ± 0.052.

Regarding AGCAAGTATC, the switch fluorescence ratio stood at 1.24 ± 0.033. Under GGGGGCAGTT stands 1 ± 0.013. Under ATAAATTTGC stands 0.968 ± 0.045; under ACTTGCTATA, 1.06 ± 0.029; under TTCCAATAGG, 1.13 ± 0.21. Under TAGGCAATCT stands 1.25 ± 0.092; under ATGCTTGAAC, 1.037 ± 0.0095. GAAGGTTTGG: the switch fluorescence ratio came to 0.981 ± 0.03. Regarding AAGGGAAAGA, the switch fluorescence ratio worked out at 1.02 ± 0.061. To GATCCAATGT belongs 0.993 ± 0.019; to AGCATTGGGT, 1.002 ± 0.0015; to CGTAGGGGGC, 1.03 ± 0.023. To TAATGGTATT belongs 0.97547 ± 0.00097. For GTTTTTACGG, the switch fluorescence ratio amounted to 1.04 ± 0.0059.

Regarding GAACGGTATG, the switch fluorescence ratio was 1.02 ± 0.051.

Values taken from the supplement of paper PMC10126150.
